Laboratory results taken from patent US20150152192A1 (SAMSUNG ELECTRONICS, published 2015).

What was measured:
[1] = biological target: T1, integrin alpha5beta1 (α5β1; R&D systems) (human, UniProt P08648 42-995; P05556 21-728, limits assumed); experiment: ELISA: integrin alpha5beta1 coated at 5 ug/ml, FLAG-Ang2 at 10 ug/ml, detection with anti-FLAG-HRP, A450
T1 construct: Bought heterodimer
Method: After that, an anti-FLAG antibody (Sigma) conjugated with horseradish peroxidase (HRP) was added to react, and the plate was washed again five times with PBS-t. Bindings between Ang2 and the above the integrin were identified indirectly by measuring the amounts of the anti-FLAG antibody remaining in the ELISA plate via color development using TMB (3,3,5,5-tetramethylbenzidine) as a substrate of HRP. As positive controls, control antibody 1 (Regeneron Ang2 antibody) and control antibody 2 (Astra Zeneca Ang2 antibody) were used. Also, to show the background, a group coated with BSA instead of integrin was used.

[2] = biological target: T2, human Ang2 polypeptide (R&D systems; Accession #O15123; SEQ ID NO: 172) (human, UniProt O15123 19-496); experiment: ELISA, human Ang2 coated, anti-human Fc-HRP; 50% binding concentration
T2 construct: Bought protein; also called hAng2; human Ang2 protein
T2 sequence: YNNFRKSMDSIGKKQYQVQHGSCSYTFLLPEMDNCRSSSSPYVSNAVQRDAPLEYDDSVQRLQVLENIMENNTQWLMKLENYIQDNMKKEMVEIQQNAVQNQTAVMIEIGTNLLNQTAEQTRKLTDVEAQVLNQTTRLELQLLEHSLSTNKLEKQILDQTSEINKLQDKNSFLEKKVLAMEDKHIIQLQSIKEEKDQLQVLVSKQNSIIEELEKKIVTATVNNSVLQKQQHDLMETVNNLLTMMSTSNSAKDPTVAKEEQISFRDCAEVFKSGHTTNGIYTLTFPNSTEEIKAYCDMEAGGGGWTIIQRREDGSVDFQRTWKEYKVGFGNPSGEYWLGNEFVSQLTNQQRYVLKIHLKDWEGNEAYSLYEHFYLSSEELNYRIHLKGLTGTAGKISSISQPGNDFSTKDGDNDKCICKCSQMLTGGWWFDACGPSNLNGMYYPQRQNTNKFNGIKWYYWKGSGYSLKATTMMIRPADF

[3] = biological target: T3, human c-Met/Fc fusion protein (R&D Systems) (human, UniProt P08581 25-932); experiment: SPR, Biacore T100, bispecific antibody captured by human Fab binder on CM5 chip, c-Met-Fc flowed
T3 construct: also called c-Met-Fc (#358-MT/CF, R&D Systems); human c-Met/Fc protein; not shown: Fc part
T3 sequence (P08581 25-932 limits assumed): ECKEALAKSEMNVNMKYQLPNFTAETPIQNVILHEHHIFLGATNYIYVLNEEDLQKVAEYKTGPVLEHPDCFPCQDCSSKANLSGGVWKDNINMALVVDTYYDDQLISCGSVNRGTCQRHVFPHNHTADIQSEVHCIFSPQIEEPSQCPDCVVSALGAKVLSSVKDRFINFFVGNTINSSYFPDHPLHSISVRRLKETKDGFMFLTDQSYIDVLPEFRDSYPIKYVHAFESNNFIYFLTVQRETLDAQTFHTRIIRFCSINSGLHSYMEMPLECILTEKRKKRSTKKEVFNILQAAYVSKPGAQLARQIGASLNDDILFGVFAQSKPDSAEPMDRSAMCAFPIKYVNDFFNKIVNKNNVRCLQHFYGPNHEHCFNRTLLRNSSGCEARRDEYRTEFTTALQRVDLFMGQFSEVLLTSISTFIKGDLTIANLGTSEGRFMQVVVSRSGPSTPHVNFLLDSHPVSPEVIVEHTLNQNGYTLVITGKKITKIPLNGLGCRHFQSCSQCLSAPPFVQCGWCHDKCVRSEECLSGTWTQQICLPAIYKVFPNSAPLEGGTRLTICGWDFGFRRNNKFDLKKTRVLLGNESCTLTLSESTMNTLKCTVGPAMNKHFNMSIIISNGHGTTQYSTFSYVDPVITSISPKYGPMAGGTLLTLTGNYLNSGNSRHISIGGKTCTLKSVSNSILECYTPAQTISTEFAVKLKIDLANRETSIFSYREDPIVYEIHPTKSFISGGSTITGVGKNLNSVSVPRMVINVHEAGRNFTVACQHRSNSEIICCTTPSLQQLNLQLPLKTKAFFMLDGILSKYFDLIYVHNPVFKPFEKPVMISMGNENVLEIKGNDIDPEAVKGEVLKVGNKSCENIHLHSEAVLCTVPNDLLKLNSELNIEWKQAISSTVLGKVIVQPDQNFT
Method: For this, a human Fab binder (GE Healthcare) was fixed on the surface of CM5 chip (#BR-1005-30, GE) according to manufacturer's manual. […] Hereto, 10 mM Glycine-HCl (pH 1.5) solution was added, to regenerate the surface. To measure the affinity, the above obtained data were fitted using BIAevaluation software (GE Healthcare, Biacore T100 evaluation software).

T1 sequence (P08648 42-995 limits assumed, chain 1 of 2): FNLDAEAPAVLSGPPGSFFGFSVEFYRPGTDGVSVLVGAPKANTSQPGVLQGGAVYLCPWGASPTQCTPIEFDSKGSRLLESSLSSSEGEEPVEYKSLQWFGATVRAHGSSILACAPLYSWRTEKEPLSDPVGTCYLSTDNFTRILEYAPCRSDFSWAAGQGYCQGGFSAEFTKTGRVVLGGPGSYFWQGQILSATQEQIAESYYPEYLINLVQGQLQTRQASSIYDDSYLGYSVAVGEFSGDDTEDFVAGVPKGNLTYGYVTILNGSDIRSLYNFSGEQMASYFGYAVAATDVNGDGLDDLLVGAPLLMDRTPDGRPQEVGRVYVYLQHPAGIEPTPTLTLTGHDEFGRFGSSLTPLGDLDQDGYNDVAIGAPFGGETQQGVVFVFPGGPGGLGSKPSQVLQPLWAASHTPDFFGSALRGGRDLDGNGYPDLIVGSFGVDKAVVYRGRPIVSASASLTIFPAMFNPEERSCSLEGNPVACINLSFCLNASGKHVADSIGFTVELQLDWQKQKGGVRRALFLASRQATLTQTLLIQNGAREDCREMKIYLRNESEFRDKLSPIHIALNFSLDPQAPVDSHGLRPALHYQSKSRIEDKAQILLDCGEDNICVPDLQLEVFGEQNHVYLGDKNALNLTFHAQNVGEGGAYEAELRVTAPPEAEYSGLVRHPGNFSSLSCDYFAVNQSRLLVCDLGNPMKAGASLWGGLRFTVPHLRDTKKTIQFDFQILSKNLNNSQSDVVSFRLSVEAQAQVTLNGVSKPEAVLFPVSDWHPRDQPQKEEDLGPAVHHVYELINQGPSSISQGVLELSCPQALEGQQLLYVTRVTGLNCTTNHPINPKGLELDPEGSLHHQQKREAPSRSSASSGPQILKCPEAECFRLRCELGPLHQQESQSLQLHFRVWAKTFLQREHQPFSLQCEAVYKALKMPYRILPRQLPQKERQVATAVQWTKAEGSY
T1 sequence (P05556 21-728 limits assumed, chain 2 of 2): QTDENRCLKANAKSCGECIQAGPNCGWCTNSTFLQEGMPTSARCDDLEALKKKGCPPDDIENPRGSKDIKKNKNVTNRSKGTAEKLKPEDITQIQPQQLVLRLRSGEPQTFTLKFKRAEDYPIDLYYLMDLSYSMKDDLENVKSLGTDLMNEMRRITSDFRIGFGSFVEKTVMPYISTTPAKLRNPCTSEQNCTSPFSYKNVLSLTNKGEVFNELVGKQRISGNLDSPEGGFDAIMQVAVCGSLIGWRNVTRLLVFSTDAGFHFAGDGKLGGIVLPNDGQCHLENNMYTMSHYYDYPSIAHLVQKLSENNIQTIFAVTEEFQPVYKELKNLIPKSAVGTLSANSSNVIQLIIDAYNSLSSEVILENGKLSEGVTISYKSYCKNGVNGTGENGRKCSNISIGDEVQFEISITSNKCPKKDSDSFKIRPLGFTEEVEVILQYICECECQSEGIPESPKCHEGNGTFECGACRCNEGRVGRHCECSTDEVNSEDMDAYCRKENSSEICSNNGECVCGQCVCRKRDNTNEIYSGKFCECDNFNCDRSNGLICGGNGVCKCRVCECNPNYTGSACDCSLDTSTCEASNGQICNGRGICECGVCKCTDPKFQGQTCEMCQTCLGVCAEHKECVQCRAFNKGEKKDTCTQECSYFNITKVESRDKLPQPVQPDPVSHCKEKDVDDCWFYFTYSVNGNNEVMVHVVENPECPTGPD

B1: FLAG-Tagged hAng2 (ligand)
chain: DYKDDDDKYNNFRKSMDSIGKKQYQVQHGSCSYTFLLPEMDNCRSSSSPYVSNAVQRDAPLEYDDSVQRLQVLENIMENNTQWLMKLENYIQDNMKKEMVEIQQNAVQNQTAVMIEIGTNLLNQTAEQTRKLTDVEAQVLNQTTRLELQLLEHSLSTNKLEKQILDQTSEINKLQDKNSFLEKKVLAMEDKHIIQLQSIKEEKDQLQVLVSKQNSIIEELEKKIVTATVNNSVLQKQQHDLMETVNNLLTMMSTSNSAKDPTVAKEEQISFRDCAEVFKSGHTTNGIYTLTFPNSTEEIKAYCDMEAGGGGWTIIQRREDGSVDFQRTWKEYKVGFGNPSGEYWLGNEFVSQLTNQQRYVLKIHLKDWEGNEAYSLYEHFYLSSEELNYRIHLKGLTGTAGKISSISQPGNDFSTKDGDNDKCICKCSQMLTGGWWFDACGPSNLNGMYYPQRQNTNKFNGIKWYYWKGSGYSLKATTMMIRPADF
notes: also called FLAG-Ang2; non-mutated Ang2
B1: binds [1].

B2: anti-c-Met/anti-Ang2 bispecific antibody (anti-Ang2 4-H10 scFv fused to the C-terminus of anti-c-Met antibody L3-1Y-IgG2) (bispecific antibody)
heavy: EVQLVESGGGLVQPGGSLRLSCAASGFTFTDYYMSWVRQAPGKGLEWLGFIRNKANGYTTEYSASVKGRFTISRDNSKNTLYLQMNSLRAEDTAVYYCARDNWFAYWGQGTLVTVSSASTKGPSVFPLAPCSRSTSESTAALGCLVKDYFPEPVTVSWNSGALTSGVHTFPAVLQSSGLYSLSSVVTVPSSNFGTQTYTCNVDHKPSNTKVDKTVERKCCVECPPCPAPPVAGPSVFLFPPKPKDTLMISRTPEVTCVVVDVSHEDPEVQFNWYVDGVEVHNAKTKPREEQFNSTFRVVSVLTVVHQDWLNGKEYKCKVSNKGLPAPIEKTISKTKGQPREPQVYTLPPSREEMTKNQVSLTCLVKGFYPSDIAVEWESNGQPENNYKTTPPMLDSDGSFFLYSKLTVDKSRWQQGNVFSCSVMHEALHNHYTQKSLSLSPGGGGGSGGGGSEVQLLESGGGLVQPGGSLRLSCAASGFTFSSYDMSWVRLAPGKGLEWVSLISPDSSSIYYADSVKGRFTISRDNSKNTLYLQMNSLRAEDTAVYYCAKDLISFWRGGFDYWGQGTLVTVSSGGGGSGGGGSGSGGSQSVLTQPPSASGTPGQRVTISCSGSSSNIGSNYVNWYQQLPGTAPKLLIYSDSHRPSGVPDRFSGSKSGTSASLAISGLRSEDEADYYCGAWDDSLSGYVFGGGTKLTVLGQAGQHHHHHHGAYPYDVPDYAS
light: DIQMTQSPSSLSASVGDRVTITCKSSQSLLASGNQNNYLAWYQQKPGKAPKMLIIWASTRVSGVPSRFSGSGSGTDFTLTISSLQPEDFATYYCQQSYSRPYTFGQGTKVEIKRTVAAPSVFIFPPSDEQLKSGTASVVCLLNNFYPREAKVQWKVDNALQSGNSQESVTEQDSKDSTYSLSSTLTLSKADYEKHKVYACEVTHQGLSSPVTKSFNRGEC
notes: also called BS ab; BS Ab
A Kd [2] of 31 nM, a Kd [3] of 0.09 nM and a koff [3] of 8.2e-05 s⁻¹ were found for B2 in this work. For the same binder, the kon [3] was 850000 M⁻¹ s⁻¹.
